Data reported in patent US20240392023A1 (ABCLON, published 2024).

How the values were obtained:
[1] = target: T1, CD30-His (Sino Biological, 10777-H08H) (UniProt P28908 19-379); experiment: ELISA, scFv-Fc titrated on plate coated with 1 µg/mL CD30-His
T1 construct: Bought protein; also called CD30-His protein; CD30 protein; not shown: His tag
T1 sequence (looked up): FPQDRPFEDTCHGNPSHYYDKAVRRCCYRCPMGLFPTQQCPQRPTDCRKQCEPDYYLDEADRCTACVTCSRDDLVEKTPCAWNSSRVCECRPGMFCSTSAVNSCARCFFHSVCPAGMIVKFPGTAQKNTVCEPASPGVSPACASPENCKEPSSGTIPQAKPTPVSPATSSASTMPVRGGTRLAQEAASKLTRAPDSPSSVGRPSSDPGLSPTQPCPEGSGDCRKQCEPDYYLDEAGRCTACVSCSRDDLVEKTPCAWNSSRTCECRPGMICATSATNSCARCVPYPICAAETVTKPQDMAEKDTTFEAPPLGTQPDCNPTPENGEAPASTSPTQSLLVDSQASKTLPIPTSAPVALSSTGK
Protocol: For ELISA, the eleven purified anti-CD30 scFv-Fc forms and the positive control HRS scFV-Fc were 1/3 diluted for 10 points starting from 10 μg/mL in a plate coated with 1 μg/mL CD30-His protein. After treatment with a secondary antibody (anti-hIgG-Fc-HRP (Invitrogen, H10007)), a color was developed with TMB. OD₄₅₀ values were read using an ELISA reader, and EC₅₀ values were measured by means of Graph prism (FIG. 1, Table 3).

[2] = target: T2, CD30 expressed on cells (CD30-293T, SUDHL1, HDLM-2) (UniProt P28908 19-595); experiment: cell-based or functional assay
T2 sequence (looked up): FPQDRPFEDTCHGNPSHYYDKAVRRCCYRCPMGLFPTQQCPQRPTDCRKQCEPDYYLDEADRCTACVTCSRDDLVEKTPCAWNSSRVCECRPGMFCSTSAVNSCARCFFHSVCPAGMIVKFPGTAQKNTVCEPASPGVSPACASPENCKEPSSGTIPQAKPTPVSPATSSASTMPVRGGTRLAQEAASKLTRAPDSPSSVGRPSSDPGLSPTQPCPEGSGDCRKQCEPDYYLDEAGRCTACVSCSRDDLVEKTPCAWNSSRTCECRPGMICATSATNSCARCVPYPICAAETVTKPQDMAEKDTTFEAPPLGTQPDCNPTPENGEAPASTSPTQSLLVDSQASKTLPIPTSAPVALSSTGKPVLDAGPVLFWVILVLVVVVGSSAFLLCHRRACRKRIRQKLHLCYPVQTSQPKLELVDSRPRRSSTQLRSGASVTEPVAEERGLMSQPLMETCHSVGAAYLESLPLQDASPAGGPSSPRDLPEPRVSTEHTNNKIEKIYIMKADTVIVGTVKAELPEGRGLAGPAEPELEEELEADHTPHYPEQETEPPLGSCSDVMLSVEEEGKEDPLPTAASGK

[3] = target: T2, CD30 expressed on cells (CD30-293T, …); experiment: cell-based or functional assay; remark: listed apart in the source
[4] = target: T2, CD30 expressed on cells (CD30-293T, …); experiment: cell-based or functional assay; remark: listed apart in the source

B1: T2-2 anti-CD30 scFv-Fc (Fc fusion)
chain: EVQLLESGGGLVQPGGSLRLSCAASGFTFSSYHMSWVRQAPGKGLEWVSGIGYGHGGTYYADSVKGRFTISRDNSKNTLYLQMNSLRAEDTAVYYCARYDYDYSFDYWGQGTLVTVSSGGGGSGGGGSGGGGSQSVLTQPPSASGTPGQRVTISCSGSSSNIGSNYVYWYQQLPGTAPKLLIYRNNQRPSGVPDRFSGSKSGTSASLAISGLRSEDEADYYCAVSSPYSYVFGGGTKLTVLG
notes: scFv-Fc-conjugated form (Zb-Fc); also called Zb-Fc form; not shown: Fc of the scFv-Fc form (Zb-Fc)
**Q.** How did the EC50 [1] turn out when B1 was run?
**A.** 0.038 µg/mL

B2: T1-159 anti-CD30 scFv-Fc (Fc fusion)
scFv: EVQLLESGGGLVQPGGSLRLSCAASGFTFSSYGMSWVRQAPGKGLEWVSSIYYYSGGTYYADSVKGRFTISRDNSKNTLYLQMNSLRAEDTAVYYCARNDYRNNSDFDYWGQGTLVTVSSGGGGSGGGGSGGGGSQSVLTQPPSASGTPGQRVTISCSGSSSNIGSNYVYWYQQLPGTAPKLLIYRNNQRPSGVPDRFSGSKSGTSASLAISGLRSEDEADYYCAAYYPYYYVFGGGTKLTVLG
notes: scFv-Fc-conjugated form (Zb-Fc); also called Zb-Fc form; not shown: Fc of the scFv-Fc (Zb-Fc) form and any junction to it
**Q.** For B2, which EC50 [1] is on record?
**A.** 0.26 µg/mL

B3: T1-141 anti-CD30 scFv-Fc (Fc fusion)
scFv: EVQLLESGGGLVQPGGSLRLSCAASGFTFSYYDMSWVRQAPGKGLEWVSGIYGSGSTYYADSVKGRFTISRDNSKNTLYLQMNSLRAEDTAVYYCARYSYYDSYSDYFDYWGQGTLVTVSSGGGGSGGGGSGGGGSQSVLTQPPSASGTPGQRVTISCSGSSSNIGSNYVYWYQQLPGTAPKLLIYRNNQRPSGVPDRFSGSKSGTSASLAISGLRSEDEADYYCAAYSYGYYVFGGGTKLTVLG
notes: scFv-Fc-conjugated form (Zb-Fc); also called Zb-Fc form; not shown: Fc of the scFv-Fc (Zb-Fc) form and its junction
**Q.** B3 was tested. Which EC50 [1] did it give?
**A.** 0.026 µg/mL

B4: scFv CAR of anti CD30 antibody (T1-159), on CAR-T cells (other)
chain: EVQLLESGGGLVQPGGSLRLSCAASGFTFSSYGMSWVRQAPGKGLEWVSSIYYYSGGTYYADSVKGRFTISRDNSKNTLYLQMNSLRAEDTAVYYCARNDYRNNSDFDYWGQGTLVTVSSGGGGSGGGGSGGGGSQSVLTQPPSASGTPGQRVTISCSGSSSNIGSNYVYWYQQLPGTAPKLLIYRNNQRPSGVPDRFSGSKSGTSASLAISGLRSEDEADYYCAAYYPYYYVFGGGTKLTVLGGQAGQTTTPAPRPPTPAPTIASQPLSLRPEACRPAAGGAVHTRGLDFACDIYIWAPLAGTCGVLLLSLVITLYCKRGRKKLLYIFKQPFMRPVQTTQEEDGCSCRFPEEEEGGCELRVKFSRSADAPAYQQGQNQLYNELNLGRREEYDVLDKRRGRDPEMGGKPRRKNPQEGLYNELQKDKMAEAYSEIGMKGERRRGKGHDGLYQGLSTATKDTYDALHMQALPPR
**Q.** Which “tumor death rate on HDLM-2 cells, ratio of CAR-T to the target 0.25” value [2] does the source give for B4 here?
**A.** ≥ 50%

**Q.** What about the “Cytotoxicity (%) against CD30-expressing cell (SUDHL1), CAR-T/Target 0.11” value [3] of the same binder?
**A.** 24%

**Q.** What about the “Cytotoxicity (%) against CD30-expressing cell (SUDHL1), CAR-T/Target 0.33” value [3] of the same binder?
**A.** 58%

**Q.** What about the “Cytotoxicity (%) against CD30-expressing cell (SUDHL1), CAR-T/Target 1” value [3] of the same binder?
**A.** 88%

**Q.** And the “Cytotoxicity (%) against CD30-expressing cell (CD30-293T), CAR-T/Target 0.11” value [4]?
**A.** -4%

**Q.** What about the “Cytotoxicity (%) against CD30-expressing cell (CD30-293T), CAR-T/Target 0.33” value [4] of the same binder?
**A.** 60%

**Q.** What about the “Cytotoxicity (%) against CD30-expressing cell (CD30-293T), CAR-T/Target 1” value [4] of the same binder?
**A.** 72%
